T1: monomeric mouse LAG3-EC (strep-tagged) (mouse, UniProt Q61790 24-422, limits assumed)
T1 construct: It was immobilized on a streptavidin-coated biosensor; also called mouse LAG3 soluble protein; not shown: C-terminal strep tag
T1 sequence: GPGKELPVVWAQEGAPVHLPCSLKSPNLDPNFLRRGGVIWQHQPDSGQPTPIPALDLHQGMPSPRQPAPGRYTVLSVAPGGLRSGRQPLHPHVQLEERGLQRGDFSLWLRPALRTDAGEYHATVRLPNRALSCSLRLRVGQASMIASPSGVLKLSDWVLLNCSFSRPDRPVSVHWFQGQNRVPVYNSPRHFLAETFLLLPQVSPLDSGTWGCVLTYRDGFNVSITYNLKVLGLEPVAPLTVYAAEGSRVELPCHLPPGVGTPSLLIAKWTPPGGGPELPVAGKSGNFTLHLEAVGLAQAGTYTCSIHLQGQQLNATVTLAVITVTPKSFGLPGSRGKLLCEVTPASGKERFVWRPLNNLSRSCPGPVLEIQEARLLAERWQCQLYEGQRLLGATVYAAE

T2: mouse LAG3 (wild type), forcibly expressed on DO11.10 or B3Z cells (mouse, UniProt Q61790 24-521)
T2 construct: The whole entry is named; also called mLAG3; mLAG3 WT
T2 sequence: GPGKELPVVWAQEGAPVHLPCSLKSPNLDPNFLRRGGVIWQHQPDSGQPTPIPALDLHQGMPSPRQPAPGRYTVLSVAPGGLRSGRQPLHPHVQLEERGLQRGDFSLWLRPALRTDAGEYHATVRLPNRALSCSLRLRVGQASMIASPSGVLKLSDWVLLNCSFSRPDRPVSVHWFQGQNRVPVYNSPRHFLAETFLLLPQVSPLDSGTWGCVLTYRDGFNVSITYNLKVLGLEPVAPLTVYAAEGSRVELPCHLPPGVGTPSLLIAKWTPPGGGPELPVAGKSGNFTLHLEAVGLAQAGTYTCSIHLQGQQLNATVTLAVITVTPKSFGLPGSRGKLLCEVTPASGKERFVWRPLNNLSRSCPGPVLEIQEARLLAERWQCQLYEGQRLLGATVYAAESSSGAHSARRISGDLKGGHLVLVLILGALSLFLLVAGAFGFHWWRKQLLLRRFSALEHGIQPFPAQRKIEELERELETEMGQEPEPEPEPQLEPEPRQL


What was measured:
[1] = biological target: T1, monomeric mouse LAG3-EC (strep-tagged); experiment: biolayer interferometry (BLItz), strep-tagged monomeric mouse LAG3-EC on the biosensor, antibody at 66.67, 200, 666.7 and 2000 nM
Procedure: (§1) The binding affinity of anti-mouse LAG3 antibodies (TKB58 and C9B7W) to a mouse LAG3 soluble protein was measured by biolayer interferometry. Briefly, cDNA fragments encoding D1 to D4 (LAG3-EC) of mouse LAG3 were amplified by PCR. A strep tag was added to the C-terminus of LAG3-EC. The chimeric cDNA was cloned into an expression vector modified from pEBMulti-Neo (Wako). Plat-E cells were transfected with the plasmid using Avalanche-Omni Transfection Reagent (EZ Biosystems) and the culture supernatant was collected after 48 hours. Monomeric mouse LAG3-EC (strep-tagged) was immobilized on a streptavidin-coated biosensor chip (Pall ForteBio) and binding of anti-mouse LAG3 antibodies at various concentrations was monitored with BLItz (Pall ForteBio). The chips were washed with PBS and the dissociation rates were analyzed. The binding rate constant (ka), the dissociation rate constant (kd), and the dissociation constant […] were calculated with BLItz Pro software. In TKB58, as compared with a case in C9B7W, ka was about 26 times faster and kd was 3.6 times slower.

[2] = biological target: T2, mouse LAG3 (wild type), forcibly …; experiment: flow cytometry of cells stained with culture supernatant
From the text: A nucleic acid encoding the heavy and light chain variable regions of an anti-mouse LAG3 antibody (TKB58) and an anti-mouse CD8 antibody (YTS169) was synthesized, amplified by PCR, and was cloned into an expression plasmid vector produced by modifying pEBMulti-Neo (Wako), whereby an expression plasmid of a bispecific molecule TKB58xYTS169 (SEQ ID NO: 33) recognizing mouse LAG3 and mouse CD8 was produced. The expression plasmid was transfected into PlatE cells using Avalanche-Omni Transfection Reagent (EZ Biosystems), and the culture supernatant was collected after 48 hours. DO11.10, DO11.10-mLAG3, B3Z, and B3Z-mLAG3 cells were stained using the culture supernatant.

[3] = biological target: T2, mouse LAG3 (wild type), forcibly …; experiment: flow cytometry of DO11.10-mLAG-3 cells (CD3ε +, LAG-3 +) stained with culture supernatant, detected with anti-FLAG tag antibody
From the text: A nucleic acid encoding the heavy and light chain variable regions of an anti-mouse LAG3 antibody (TKB58) and an anti-mouse CD3s antibody (2C11) was synthesized, amplified by PCR, and was cloned into an expression plasmid vector produced by modifying pEBMulti-Neo (Wako) or pSecTag2/Hygro (Thermo Fisher Scientific), whereby expression plasmids of bispecific molecules 2C11xTKB58 (SEQ ID NO: 31) and TKB58x2C11 (SEQ ID NO: 32) recognizing mouse LAG3 and […] were produced. The expression plasmid was transfected into PlatE cells using Avalanche-Omni Transfection Reagent (EZ Biosystems), and the culture supernatant was collected after 48 hours. BW5147, DO11.10, and DO11.10-mLAG3 cells were stained using the culture supernatant.

[4] = biological target: T1, monomeric mouse LAG3-EC (strep-tagged); experiment: biolayer interferometry (BLItz); reference C9B7W
Procedure: as §1

Kd [1] | koff [1] | kon [1] | Molecule | also measured
414 nM | 0.00392 s⁻¹ | 9480 M⁻¹ s⁻¹ | anti-mouse LAG3 antibody C9B7W | 
 |  |  | bispecific molecule TKB58xYTS169 (bispecific antibody, Used as culture supernatant of transfected PlatE cells) DAAQPARVQLQQSGAELVRPGALVKLSCKASGFNIKDYYMHWVKQRPEQGLEWIGWIDPENGNTIYDPKFQDKASLTADTSSNTAYLQLSSLTSEDTAVYYCAPERGYDYAMDYWGQGTSVTVSSGGGGSDIVLTQSPAMAMSPGERITISCRASESVSTRMHWYQQKPGQQPKLLIYGASNLESGVPARFSGSGSGTDFTLTIDPVEANDTATYFCQQSWYDPWTFGGGTKLELKGGGGSGGGGSGGGGSEVKLQESGGGLVQPGRSLKLSCAASGFNFNDYWMGWVRQAPGKGLEWIGEINKDSSTINYTPSLKDKFTISRDNAQNTLYLQMSKLGSEDTAIYYCARARGMMVLIIPHYFDYWGQGVMVTVSSTGGGGSIVLTQSPATLSVTPGDSVSLSCRASQSISNNLHWYQQKSHESPRLLIKYASQSISGIPSRFSGSGSGTDFTLSINSVETEDFGMYFCQQSNSWPQYTFGGGTKLEIKGGGGSDYKDDDDKNSAVDHHHHHH | binding result [2]: binds
 |  |  | bispecific molecule 2C11xTKB58 (bispecific antibody, Used as culture supernatant of transfected PlatE cells) DAAQPAREVQLVESGGGLVQPGKSLKLSCEASGFTFSGYGMHWVRQAPGRGLESVAYITSSSINIKYADAVKGRFTVSRDNAKNLLFLQMNILKSEDTAMYYCARFDWDKNYWGQGTMVTVSSGGGGSIVLTQSPATLSVTPGDSVSLSCRASQSISNNLHWYQQKSHESPRLLIKYASQSISGIPSRFSGSGSGTDFTLSINSVETEDFGMYFCQQSNSWPQYTFGGGTKLEIKGGGGSGGGGSGGGGSVQLQQSGAELVRPGALVKLSCKASGFNIKDYYMHWVKQRPEQGLEWIGWIDPENGNTIYDPKFQDKASLTADTSSNTAYLQLSSLTSEDTAVYYCAPERGYDYAMDYWGQGTSVTVSSGGGGSDIQMTQSPSSLPASLGDRVTINCQASQDISNYLNWYQQKPGKAPKLLIYYTNKLADGVPSRFSGSGSGRDSSFTISSLESEDIGSYYCQQYYNYPWTFGPGTKLEIKGGGGSDYKDDDDKNSAVDHHHHHH | binding result [3]: binds
4.39 nM | 0.0011 s⁻¹ | 251000 M⁻¹ s⁻¹ | anti-mouse LAG3 antibody TKB58 (antibody, V domains shown, Full-form antibody; also called TKB58 antibody; full-form anti-mouse LAG3 antibody) VH: VQLQQSGAELVRPGALVKLSCKASGFNIKDYYMHWVKQRPEQGLEWIGWIDPENGNTIYDPKFQDKASLTADTSSNTAYLQLSSLTSEDTAVYYCAPERGYDYAMDYWGQGTSVTVSS VL: IVLTQSPATLSVTPGDSVSLSCRASQSISNNLHWYQQKSHESPRLLIKYASQSISGIPSRFSGSGSGTDFTLSINSVETEDFGMYFCQQSNSWPQYTFGGGTKLEIK | fold faster ka against C9B7W [4]: ~26 times; fold lower KD against C9B7W [4]: 94 times; fold slower kd against C9B7W [4]: 3.6 times
